Assay results: paper PMC4552633

Experiments:
[1] = target: clathrin adaptor AP-1, endogenous in 293T cells (detected by its γ-adaptin subunit), O43747;Q9BXS5;P61966; assay: cross-linking co-immunoprecipitation (anti-HA IP), Western blot quantification; settings: read off a plot
[2] = target: clathrin adaptor AP-2, endogenous in 293T cells (detected by its α adaptin subunit), O95782;Q96CW1;P53680; assay: as above; settings: read off a plot
[3] = 293T tetherin Y6,8A cells, DMSO, PFA (0.05% w/v) cross-linking, 48 h post transfection, parent: est. 2.5
[4] = 293T tetherin Y6,8A cells, PFA (0.05% w/v) cross-linking, 48 h post transfection, parent: est. 1.8
[5] = 293T tetherin cells, PFA (0.05% w/v) cross-linking, 48 h post transfection, parent: est. 1.5
[6] = 293T tetherin Y6,8A cells, DMSO, PFA (0.05% w/v) cross-linking, 48 h post transfection, parent: est. 1.7
[7] = 293T tetherin Y6,8A cells, PFA (0.05% w/v) cross-linking, 48 h post transfection, parent: est. 2.3
[8] = 293T tetherin cells, PFA (0.05% w/v) cross-linking, 48 h post transfection, parent: est. 0.9

Row | Substance | response (% relative to input control) [1, 3] | response (% relative to input control) [1, 4] | response (% relative to input control) [1, 5] | response (% relative to input control) ([1]; parent: est. 0) | response (% relative to input control) [2, 6] | response (% relative to input control) [2, 7] | response (% relative to input control) [2, 8] | response (% relative to input control) ([2]; parent: est. 0)
1 | HIV-1 NL4.3 Vpu-HA (codon optimized, pCR3.1 Vpu-HA) S52A; S56A | 0 | 0 | 1 | 0 | 0 | 0 | 0 | 0
2 | HIV-1 NL4.3 Vpu-HA (codon optimized, pCR3.1 Vpu-HA) L41A; I42A; L45A; I46A |  | 0 | 0.1 |  |  | 0 | 0 | 
3 | HIV-1 NL4.3 Vpu-HA (codon optimized, pCR3.1 Vpu-HA) N54H; E55G |  | 0 | 0 |  |  | 0 | 0 | 
4 | HIV-1 NL4.3 Vpu-HA (codon optimized, pCR3.1 Vpu-HA) ELV | 0 | 0 | 0.95 | 0 | 0 | 0 | 0 | 0
5 | HIV-1 NL4.3 Vpu-HA (codon optimized, pCR3.1 Vpu-HA) A14L; W22A |  | 0 | 0.45 |  |  | 0 | 0 | 
